Reference: patent US20160303217A1 (published 2016)

B1: porcine transferrin (ligand)
chain: VAQKTVRWCTISNQEANKCSSFRENMSKAVKNGPLVSCVKKSSYLDCIKAIRDKEADAVTLDAGLVFEAGLAPYNLKPVVAEFYGQKDNPQTHYYAVAVVKKGSNFQWNQLQGKRSCHTGLGRSAGWIIPMGLLYDQLPEPRKPIEKAVASFFSSSCVPCADPVNFPKLCQQCAGKGAEKCACSNHEPYFGYAGAFNCLKEDAGDVAFVKHSTVLENLPDKADRDQYELLCRDNTRRPVDDYENCYLAQVPSHAVVARSVDGQEDSIWELLNQAQEHFGRDKSPDFQLFSSSHGKDLLFKDSANGFLKIPSKMDSSLYLGYQYVTALRNLREEISPDSSKNECKKVRWCAIGHEETQKCDAWSINSGGKIECVSAENTEDCIAKIVKGEADAMSLDGGYIYIAGKCGLVPVLAENYKTEGENCVNTPEKGYLAVAVVKKSSGPDLNWNNLKGKKSCHTAVDRTAGWNIPMGLLYNKINSCKFDQFFGEGCAPGSQRNSSLCALCIGSERAPGRECLANNHERYYGYTGAFRCLVEKGDVAFVKDQVVQQNTDGKNKDDWAKDLKQMDFELLCQNGAREPVDNAENCHLARAPNHAVVARDDKVTCVAEELLKQQAQFGRHVTDCSSSFCMFKSNTKDLLFRDDTQCLARVGKTTYESYLGADYITAVANLRKCSTSKLLEACTFHSAKNPRVETTT

Assays:
[1] = molecular target: A. pleuropneumoniae TbpB 26-528 (amino acid 26-528) derived from strain H87, purified recombinant truncated …; experiment: SPR
[2] = molecular target: T1, A. pleuropneumoniae TbpB 20-528 (amino acid 20-528) derived from strain H49, purified recombinant truncated …; experiment: SPR
[3] = molecular target: T1, A. pleuropneumoniae TbpB 20-528 (amino …); experiment: ITC
porcine transferrin = molecular target: B1; experiment: BLI

Binder	Kd [1] [nM]	Kd [2] [nM]	Kd [3] [nM]	Kd (porcine transferrin) [nM]
B1	60	44	55	
H. parasuis TbpB 27-577 (amino acid 27-577) derived from the Nagasaki strain Hp5, purified recombinant truncated protein (protein) FDLEDVQPNKTTGVSKEEYQDVETDKKVKEQLGELMEPALGYVVKVPVSQSGARRTEISNPEAITDEDLKKIPNHETIKSVAEQNYGWVVDKTADKTMKYVRSGYAIDVDHYGTRDKGYVFYKGINPSKELPQGLVLTYQGEWDFTSDANLDAKRPNSNPEFNGYGPGQRIATTSANAKGRTYTSEFEVDFSAKKLKGKLNSKTANTESLERYSIEAEPKGNRFRGKAIAKDTSDAILGKSSDYLEGGFYGPKAEELAGKFITNDKSLFAVFSAKHNGSNVDTVRIIDASKIDLTHFNSSELTNFGDASVLIIDGKKMDLAGTDFKNSKTIEINGKTMVAVACCSNLEYMKFGQLWQKEGETAKDNSLFLQGERTTTDKMPKGGNYKYIGTWDAQVSKENNWVATADDDRKAGYRTEFDVDFGNKNLSGKLFDKNGVNPVFTVDAKINGNGFTGKAKTSDAGFALDSDSSRYDNVKFSDVAVNGGFYGPTAAELGGQFFHKSDNGSVGAIFGAKRQVKK				21
